Assay results from US5783681, “Androgen regulation with DNA sequences of rat probasin gene” (University of Manitoba).

What was measured:
[1] = target: T1, androgen receptor (AR) (Rattus norvegicus) (UniProt P15207); experiment: cell_activity; conditions: DHT, CAT reporter
T1 sequence: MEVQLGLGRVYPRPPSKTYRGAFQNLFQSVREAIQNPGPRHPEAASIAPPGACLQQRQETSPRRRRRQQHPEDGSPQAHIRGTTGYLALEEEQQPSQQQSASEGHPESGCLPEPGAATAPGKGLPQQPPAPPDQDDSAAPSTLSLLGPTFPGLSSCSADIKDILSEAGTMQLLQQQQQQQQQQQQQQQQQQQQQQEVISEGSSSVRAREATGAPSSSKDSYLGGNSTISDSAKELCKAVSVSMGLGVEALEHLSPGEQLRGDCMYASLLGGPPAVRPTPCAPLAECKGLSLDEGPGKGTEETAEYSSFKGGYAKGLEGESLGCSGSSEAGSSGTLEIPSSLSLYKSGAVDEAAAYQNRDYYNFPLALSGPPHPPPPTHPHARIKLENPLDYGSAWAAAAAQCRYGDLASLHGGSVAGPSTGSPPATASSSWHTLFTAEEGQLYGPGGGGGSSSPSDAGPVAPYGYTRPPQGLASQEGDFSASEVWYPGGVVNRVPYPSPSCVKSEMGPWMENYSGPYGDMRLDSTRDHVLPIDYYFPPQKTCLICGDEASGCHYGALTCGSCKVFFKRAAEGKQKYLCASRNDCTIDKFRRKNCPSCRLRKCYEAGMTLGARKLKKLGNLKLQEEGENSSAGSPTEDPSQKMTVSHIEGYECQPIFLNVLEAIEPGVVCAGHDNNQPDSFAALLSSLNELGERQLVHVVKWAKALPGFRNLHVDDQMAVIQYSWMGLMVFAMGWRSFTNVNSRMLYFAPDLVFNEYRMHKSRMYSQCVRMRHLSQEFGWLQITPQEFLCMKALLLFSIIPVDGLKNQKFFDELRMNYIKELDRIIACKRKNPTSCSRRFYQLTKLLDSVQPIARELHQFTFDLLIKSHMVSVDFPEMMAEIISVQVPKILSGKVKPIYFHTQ

[2] = target: T2, glucocorticoid receptor (GR) (Rattus norvegicus) (UniProt P06536); experiment: cell_activity; conditions: DEX, CAT reporter
T2 sequence: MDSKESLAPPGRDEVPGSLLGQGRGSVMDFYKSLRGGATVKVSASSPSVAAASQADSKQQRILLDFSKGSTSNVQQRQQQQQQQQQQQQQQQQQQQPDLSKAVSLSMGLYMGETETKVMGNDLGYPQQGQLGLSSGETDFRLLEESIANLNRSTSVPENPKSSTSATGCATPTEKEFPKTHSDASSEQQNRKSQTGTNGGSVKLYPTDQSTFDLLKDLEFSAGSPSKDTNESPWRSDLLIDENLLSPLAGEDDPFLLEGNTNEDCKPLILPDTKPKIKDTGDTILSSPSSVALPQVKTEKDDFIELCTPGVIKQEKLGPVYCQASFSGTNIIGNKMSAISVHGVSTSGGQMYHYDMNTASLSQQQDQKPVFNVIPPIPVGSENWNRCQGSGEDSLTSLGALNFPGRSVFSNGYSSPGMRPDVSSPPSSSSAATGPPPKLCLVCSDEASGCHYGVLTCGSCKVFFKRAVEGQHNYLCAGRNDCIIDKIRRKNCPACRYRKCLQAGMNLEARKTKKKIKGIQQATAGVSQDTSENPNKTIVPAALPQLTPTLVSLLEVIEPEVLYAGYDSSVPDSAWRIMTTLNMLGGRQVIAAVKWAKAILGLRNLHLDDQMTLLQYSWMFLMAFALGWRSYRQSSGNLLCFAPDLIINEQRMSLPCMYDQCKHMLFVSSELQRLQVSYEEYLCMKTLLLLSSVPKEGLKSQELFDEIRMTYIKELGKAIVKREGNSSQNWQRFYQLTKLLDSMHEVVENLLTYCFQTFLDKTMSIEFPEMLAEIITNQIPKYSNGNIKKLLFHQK

[3] = target: T3, androgen receptor (hAR) wild type (Homo sapiens) (UniProt P10275); experiment: cell_activity; conditions: 10 nM DHT; background 4.2
T3 sequence: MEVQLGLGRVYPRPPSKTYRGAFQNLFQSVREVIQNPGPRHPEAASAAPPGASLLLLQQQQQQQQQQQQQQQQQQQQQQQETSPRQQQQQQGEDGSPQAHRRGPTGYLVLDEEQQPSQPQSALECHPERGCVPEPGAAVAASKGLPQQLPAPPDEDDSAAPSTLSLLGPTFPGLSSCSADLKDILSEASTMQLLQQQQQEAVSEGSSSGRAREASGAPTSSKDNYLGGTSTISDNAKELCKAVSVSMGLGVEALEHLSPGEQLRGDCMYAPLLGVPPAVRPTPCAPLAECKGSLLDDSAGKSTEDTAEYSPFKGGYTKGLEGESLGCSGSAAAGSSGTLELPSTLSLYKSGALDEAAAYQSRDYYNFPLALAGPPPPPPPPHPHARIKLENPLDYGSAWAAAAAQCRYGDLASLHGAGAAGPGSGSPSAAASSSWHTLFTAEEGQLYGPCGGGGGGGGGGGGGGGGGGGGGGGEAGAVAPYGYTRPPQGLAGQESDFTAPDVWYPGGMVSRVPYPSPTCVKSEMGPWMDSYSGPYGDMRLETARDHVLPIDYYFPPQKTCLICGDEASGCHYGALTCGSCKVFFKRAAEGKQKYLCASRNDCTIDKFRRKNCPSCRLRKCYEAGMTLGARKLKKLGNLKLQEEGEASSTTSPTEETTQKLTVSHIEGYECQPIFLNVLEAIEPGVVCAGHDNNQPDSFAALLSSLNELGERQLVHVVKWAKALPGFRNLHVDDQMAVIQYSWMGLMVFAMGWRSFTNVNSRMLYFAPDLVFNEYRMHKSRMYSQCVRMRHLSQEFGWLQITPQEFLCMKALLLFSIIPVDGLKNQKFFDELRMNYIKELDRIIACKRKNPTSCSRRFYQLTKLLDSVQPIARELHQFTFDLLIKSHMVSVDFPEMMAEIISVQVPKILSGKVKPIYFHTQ

[4] = target: T4, androgen receptor V865L V865L (Homo sapiens) (UniProt P10275); experiment: cell_activity; conditions: 10 nM DHT; background 4.2
T4 sequence: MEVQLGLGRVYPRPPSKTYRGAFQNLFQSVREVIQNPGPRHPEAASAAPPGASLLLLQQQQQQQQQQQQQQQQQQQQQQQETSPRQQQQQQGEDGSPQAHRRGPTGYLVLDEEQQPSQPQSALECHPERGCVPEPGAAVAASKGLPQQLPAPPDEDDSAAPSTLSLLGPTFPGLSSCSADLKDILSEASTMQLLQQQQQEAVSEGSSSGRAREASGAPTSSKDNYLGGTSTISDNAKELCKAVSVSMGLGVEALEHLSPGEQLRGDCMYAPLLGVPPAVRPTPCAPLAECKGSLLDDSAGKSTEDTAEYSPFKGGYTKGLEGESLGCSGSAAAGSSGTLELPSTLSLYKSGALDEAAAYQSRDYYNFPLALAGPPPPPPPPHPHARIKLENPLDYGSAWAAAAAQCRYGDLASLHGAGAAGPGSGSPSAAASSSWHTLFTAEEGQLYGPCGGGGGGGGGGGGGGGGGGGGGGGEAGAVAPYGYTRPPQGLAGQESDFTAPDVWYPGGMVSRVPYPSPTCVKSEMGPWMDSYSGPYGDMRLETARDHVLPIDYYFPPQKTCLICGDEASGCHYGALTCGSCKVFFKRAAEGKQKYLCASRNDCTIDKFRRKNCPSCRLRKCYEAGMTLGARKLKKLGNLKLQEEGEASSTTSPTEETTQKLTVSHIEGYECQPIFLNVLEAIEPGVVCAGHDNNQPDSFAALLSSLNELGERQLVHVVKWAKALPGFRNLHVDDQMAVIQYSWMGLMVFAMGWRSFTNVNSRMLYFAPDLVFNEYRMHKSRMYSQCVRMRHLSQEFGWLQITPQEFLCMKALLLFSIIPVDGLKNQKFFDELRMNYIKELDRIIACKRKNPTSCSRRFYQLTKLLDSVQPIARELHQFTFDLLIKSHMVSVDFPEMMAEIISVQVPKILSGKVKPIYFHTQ

[5] = target: androgen receptor V865M V865M (Homo sapiens) (UniProt P10275); experiment: cell_activity; conditions: 10 nM DHT; background 4.2
androgen receptor (AR) [6] = target: T5, androgen receptor (AR) (Rattus norvegicus, UniProt P15207 P15207:1-902); experiment: cell_activity; DHT, TK promoter CAT reporter; conditions: chain copies: 2
Experimental: (§1) Cells which had undergone transient transfection were harvested in phosphate buffered saline containing 1 mM EDTA. After centrifugation at 2000×g for 4 min at room temperature, cells were lysed in 0.1M Tris-HCl/0.1% Triton X-100, pH 7.8 for 15 min on ice. Insoluble material was removed by centrifugation at 14,500×g, 15 minutes, at 4° C. The CAT activity in the cell extract was determined by a two-phase fluor diffusion assay (Nachtigal et al., 1989). Also, the DNA was isolated from the insoluble material and 2 µg samples were placed in duplicate on nitrocellulose membrane via slot-blot apparatus and probed with ^32P-labelled CAT insert DNA. Autoradiograms were analyzed by densitometry and all CAT activity data was normalized for transfection efficiency. For transgenic mice, a total cellular extract of each tissue was assayed for CAT activity.
(§2) Due to the lack of appropriate cell lines containing either androgen receptors and/or prostatic in origin, a range of cell lines was tested. The human prostatic cells LNCaP would express and androgen regulate PB-CAT-while HeLa, prostatic DU-145 and PC-3 cells required co-transfection of an androgen receptor expression vector for androgen regulation. […]

[7] = target: T6, glucocorticoid receptor (GR) (Rattus norvegicus, UniProt P06536 P06536:1-795); experiment: cell_activity; DEX, TK promoter CAT reporter; conditions: chain copies: 2
Experimental: as §1, §2

[8] = target: T6, glucocorticoid receptor (GR); experiment: cell_activity; DEX, CAT reporter; conditions: chain copies: 2
Experimental: as §1, §2

androgen receptor (AR) [9] = target: T5, androgen receptor (AR); experiment: cell_activity; DHT, CAT reporter; conditions: chain copies: 2
Experimental: as §1, §2

ATGATAGCATCTTGTTCTTAGTCTTTTTCTTAATAGGGACATAAAGCCCACAAATAAAAATATGCCTGAAGAATGGGACAGGCATTGGGCATTGTCCATGCCTAGTAAAGTACTCCAAGAACCTATTTGTATACTAGATGACACAATGTCAATGTCTGTGTACAACTGCCAACTGGGATGCAAGACACTGCCCATGCCAATCATCCTGAAAAGCAGCTATAAAAAGCAGGAAGCTACTCTGCACCTTGTCAGTGAGGTCCAGATACCTACAG (double strand) [probasin -244 to +28]
activity (fold induction) [1]: 49
activity (fold induction) [2]: 9

TAGTCATCATGTTTAAACATCTACCATTCCAGTTAAGAAAATATGATAGCATCTTGTTCTTAGTCTTTTTCTTAATAGGGACATAAAGCCCACAAATAAAAATATGCCTGAAGAATGGGACAGGCATTGGGCATTGTCCATGCCTAGTAAAGTACTCCAAGAACCTATTTGTATACTAGATGACACAATGTCAATGTCTGTGTACAACTGCCAACTGGGATGCAAGACACTGCCCATGCCAATCATCCTGAAAAGCAGCTATAAAAAGCAGGAAGCTACTCTGCACCTTGTCAGTGAGGTCCAGATACCTACAG (double strand) [probasin -286 to +28 ARE2*]
activity (dpm/min/mg protein) [3]: 177
activity (dpm/min/mg protein) [4]: 122
activity (dpm/min/mg protein) [5]: 49

ATAGCATCTTGTTCTTAGTGGGCATTGTCCATGCCTAGTAAAGTACTCCAAGAACCTATTTGTATACTAGATGACACAATGTCAATGTCTGTGTACAACTGCCAACTGGGATGCAAGACACTGCCCATGCCAATCATCCTGAAAAGCAGCTATAAAAAGCAGGAAGCTACTCTGCACCTTGTCAGTGAGGTCCAGATACCTACAG (double strand) [ARE-1 adjacent to probasin -158 to +28]
activity (fold induction) [2]: 21

TAGTCATCATGTTTAAACATCTACCATTCCAGTTAAGAAAATATGATAGCATCTTGTTCTTAGTCTTTTTCTTAATAGGGACATAAAGCCCACAAATAAAAATATGCCTGAAGAATGGGACAGGCATTGGGCATTGTCCATGCCTAGTAAAGTACTCCAAGAACCTATTTGTATACTAGATGACACAATGTCAATGTCTGTGTACAACTGCCAACTGGGATGCAAGACACTGCCCATGCCAATCATCCTGAAAAGCAGCTATAAAAAGCAGGAAGCTACTCTGCACCTTGTCAGTGAGGTCCAGATACCTACAG (double strand) [probasin -286 to +28]
activity (dpm/min/mg protein) [5]: 42

B1: probasin -244 to -96 (dsDNA)
DNA 1: ATGATAGCATCTTGTTCTTAGTCTTTTTCTTAATAGGGACATAAAGCCCACAAATAAAAATATGCCTGAAGAATGGGACAGGCATTGGGCATTGTCCATGCCTAGTAAAGTACTCCAAGAACCTATTTGTATACTAGATGACACAATGT
DNA 2: ACATTGTGTCATCTAGTATACAAATAGGTTCTTGGAGTACTTTACTAGGCATGGACAATGCCCAATGCCTGTCCCATTCTTCAGGCATATTTTTATTTGTGGGCTTTATGTCCCTATTAAGAAAAAGACTAAGAACAAGATGCTATCAT
activity (androgen receptor (AR) [6]): 61 fold induction
activity [7]: 96 fold induction

B2: probasin -158 to +28 (dsDNA)
DNA 1: GGGCATTGTCCATGCCTAGTAAAGTACTCCAAGAACCTATTTGTATACTAGATGACACAATGTCAATGTCTGTGTACAACTGCCAACTGGGATGCAAGACACTGCCCATGCCAATCATCCTGAAAAGCAGCTATAAAAAGCAGGAAGCTACTCTGCACCTTGTCAGTGAGGTCCAGATACCTACAG
DNA 2: CTGTAGGTATCTGGACCTCACTGACAAGGTGCAGAGTAGCTTCCTGCTTTTTATAGCTGCTTTTCAGGATGATTGGCATGGGCAGTGTCTTGCATCCCAGTTGGCAGTTGTACACAGACATTGACATTGTGTCATCTAGTATACAAATAGGTTCTTGGAGTACTTTACTAGGCATGGACAATGCCC
activity [8]: 1.2 fold induction
activity (androgen receptor (AR) [9]): 1.4 fold induction
